Patent US7211241B2, “Cascade polymer complexes, process for their production and pharmaceutical agents containing said complexes” (Schering Aktiengesellschaft, priority 1995, dated 2007)

Columns and labels:
[1] = rats; cited from earlier work
[2] = In vivo comparison with an extracellular contrast medium: blood concentrations of Gd and Dy in rats with ligated renal vessels; settings: i.v.; for diffusion in the interstitium: compound 1 and compound 2 compared in the same animals; for time until equilibrium is reached (constant blood level): examination period 15 minutes
Excerpt: FIG. 1 is a graph of the measured blood concentrations of Gd (compound 1) and Dy (compound 2) in rats (n=5) with ligated renal vessels, as described in the above Example for an In Vivo Comparison with an Extracellular Contrast Medium.
The suitability of the compound described in Example 1k) as blood-pool-agent is shown in the following test.
As test animals, five male (Schering-SPF) rats that are 300–350 g in weight are used. Before the test, the abdomen is opened, the intestines are shifted and then the renal vessels (arterial+venous) of both sides are ligated through the rear peritoneum with a surgical needle. Then, the abdominal cavity is closed again. 0.3 ml (respectively 50 mmol/L) of the following contrast medium solution per animal is then administered intravenously: mixture of 1 part each of the compound of Example 1k), named compound 1 below, and the dysprosium complex of 10-(1-hydroxymethyl-2,3-dihydroxypropyl)-1,4,7-tris(carboxymethyl)-1,4,7,10-tetraazacyclododecane, produced analogously to the instructions in European Patent Application EP 448 191, named compound 2 below. Blood samples are taken with a catheter in the common carotid artery at the following times: 15, 30, 45, 60, 90 seconds, 3, 5, 10, 15 minutes p.i. In the blood samples obtained, the concentrations of gadolinium (Gd) and dysprosium (Dy) are measured with the aid of atomic emission spectrometry (ICP-AES) in each case in a parallel manner. The portion of the injected contrast medium of compound 1 (Gd) and compound 2 (Dy., comparison substance), remaining in the blood space, can be compared in the same animals by the different marking. Since a renal excretion is not possible, the decrease of the blood concentration can be attributed only to a distribution in the blood spaces and to the diffusion in the interstitial tissue.

[3] = MR angiography on rabbits; format: in vivo; settings: i.v. 50 μmol of Gd/kg of body weight, 1.5 tesla
Description: The compound cited under Example 1k was studied on rabbits (CH. R. Kisslegg, ≈4 kg of body weight) in an MR angiography experiment (Ganzkörper [whole-Body] MRT System Siemens Vision, 1.5 tesla, FISP 3D; TR: 400 ms; TE 15 ms; flip angle: 45°; coronal).
In a precontrast picture only one to two major vessels are visible (e.g., abdominal aorta) in relatively poor contrast (signal intensity SI of these vessels against the background).

Molecule | excretion route [1] | behaviour as blood-pool contrast medium [2] | diffusion in the interstitium [2] | blood concentrations ([2]; compound 1 versus compound 2, up to 15 minutes p.i.) | time until equilibrium is reached (constant blood level) [2] | blood vessels visible after administration of contrast medium [3] | contrast (SI of the vessels/SI of the background) ([3]; versus precontrast picture)
polylysine-GdDTPA | excreted unchanged by glomerular filtration through the kidneys | – | – | – | – | – | –
24-mer-Gd-complex of N-(5-DO3A-yl-4-oxo-3-azahexanoyl)-cascade polyamide based on N,N,N′,N′,N″,N″-hexakis[2-(trilysylamino)-ethyl]-trimesic acid triamide [Example 1k] | – | behaves as a blood-pool contrast medium | considerably slowed-down | constantly higher | no equilibrium is reached | a wide variety of minor blood vessels and capillaries | marked increase
O=C([O-])CN1CCN(CC(=O)[O-])CCN(C(CO)C(O)CO)CCN(CC(=O)[O-])CC1.[Dy+3] (stereo not drawn) [compound 2, dysprosium complex of 10-(1-hydroxymethyl-2,3-dihydroxypropyl)-1,4,7-tris(carboxymethyl)-1,4,7,10-tetraazacyclododecane, reference compound] | – | – | diffuses quickly into the interstitial spaces of the body | – | 3–5 minutes p.i. | – | –
